Drawing on patent US4587340A, “Biopterin analogs” (Burroughs Wellcome Co., priority 1984, dated 1986), this text covers Km for one substance.

Data set [1] has as its system COCC1CNc2nc(N)[nH]c(=O)c2N1. In words: Tyrosine hydroxylase cofactor assay. The data set is classed as biochemical.
Experimental: Tyrosine hydroxylase was partially purified through a 25-45% ammonium sulfate fraction. […] The enzyme was assayed by a modification of the method of Nagatsu, T., Levitt, M., and Udenfriend, S. (Anal. Biochem. 9, 122, (1964)) where the Dowex chromatography step was replaced by a charcoal extraction.
Data set [2] concerns C[C@H](O)[C@H](O)[C@H]1CNc2nc(N)[nH]c(=O)c2N1. In words: purified protein, by the assay type.

Tyrosine hydroxylase (Homo sapiens), sequence (chain, as listed by the source): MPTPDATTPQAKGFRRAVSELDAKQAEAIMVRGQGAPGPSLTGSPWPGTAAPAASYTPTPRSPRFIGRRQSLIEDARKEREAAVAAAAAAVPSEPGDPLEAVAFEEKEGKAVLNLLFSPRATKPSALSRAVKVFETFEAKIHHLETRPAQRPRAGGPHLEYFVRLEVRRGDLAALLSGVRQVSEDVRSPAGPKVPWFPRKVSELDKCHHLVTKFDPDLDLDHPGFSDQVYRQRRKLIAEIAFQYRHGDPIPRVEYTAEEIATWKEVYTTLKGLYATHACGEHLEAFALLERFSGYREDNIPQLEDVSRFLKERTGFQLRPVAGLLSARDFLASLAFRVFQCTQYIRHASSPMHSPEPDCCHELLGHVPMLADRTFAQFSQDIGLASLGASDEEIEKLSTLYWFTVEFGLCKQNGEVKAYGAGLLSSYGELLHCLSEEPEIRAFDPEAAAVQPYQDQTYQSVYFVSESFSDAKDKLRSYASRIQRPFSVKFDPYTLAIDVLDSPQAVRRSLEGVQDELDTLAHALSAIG

Consider Tyrosine hydroxylase (Homo sapiens), for which the Km is 65 µM in data set [1] and 110 µM in data set [2].
